Test results published in patent US20260027208A1 (published 2026).
Where two headings read alike, the source gives them in different places.

T1: KRAS G12D peptide on HLA-A*11:01 (human)
T1 peptide: VVVGADGVGK


How the values were obtained:
[1] = target: T2, KRAS G12D mutant peptide presented by HLA-A*11:01 on cells (human); test: cell-based or functional assay
[2] = target: T2, KRAS G12D mutant peptide presented by …; test: cell-based or functional assay; remark: listed apart in the source
[3] = target: T1, KRAS G12D peptide on HLA-A*11:01; test: CD137 by flow cytometry; transduced primary CD4+ and CD8+ T cells, TRAC/TRBC wild type; G12D peptide titrated (FIG. 3E); full-length, on cells
Protocol: (§1) Primary CD4+ and CD8+ T cells were transduced with a KRAS-G12D-specific T cell receptor (TCR69, TCR79, TCR80, TCR81, or TCR91), and were either edited to knockout TRAC and TRBC or left with unmodified TRAC and TRBC genes, and expanded for several days. Engineered T cells were incubated with G12D peptide at decreasing concentrations and T cell responses were assessed by measuring CD137 expression.
(§2) In additional experiments, the effect of TRAC and TRBC knockout was evaluated for primary CD4+ and CD8+ T cells transduced with further KRAS-G12D-specific TCRs. The double knockout improved TCR avidity for multiple TCRs as shown in FIG. 3C (corresponding EC50 values in TABLE 2 and Cmax values in TABLE 3), FIG. 3D (corresponding EC50 values in TABLE 4), and FIG. 3E (corresponding EC50 values in TABLE 5).

[4] = target: T1, KRAS G12D peptide on HLA-A*11:01; test: CD137 by flow cytometry; transduced primary CD4+ and CD8+ T cells, TRAC/TRBC wild type; G12D peptide titrated (FIG. 3D); full-length, on cells
Protocol: as §1, §2

[5] = target: T1, KRAS G12D peptide on HLA-A*11:01; test: CD137 by flow cytometry; transduced primary CD4+ and CD8+ T cells, TRAC/TRBC double knockout; G12D peptide titrated (FIG. 3D); full-length, on cells
Protocol: as §1, §2

[6] = target: T1, KRAS G12D peptide on HLA-A*11:01; test: CD137 by flow cytometry; transduced primary CD4+ and CD8+ T cells, TRAC/TRBC double knockout; G12D peptide titrated (FIG. 3E); full-length, on cells
Protocol: as §1, §2

Row | Binder | Cmax (%) of CD137 T cell activation by G12D peptide, without knockout of TRAC and TRBC [1] [%] | T cell activation EC50 (CD137 vs G12D peptide dose), TRAC/TRBC double knockout T cells [1] [nM] | T cell activation EC50 (CD137 vs G12D peptide dose), WT TRAC/TRBC T cells [1] [nM] | T cell activation EC50 (CD137 vs G12D peptide dose), TRAC/TRBC double knockout T cells [2] [nM] | T cell activation EC50 (CD137 vs G12D peptide dose), WT TRAC/TRBC T cells [2] [nM] | EC50 of peptide [3] [nM] | EC50 of peptide [4] [nM] | EC50 of peptide [5] [nM] | EC50 of peptide [6] [nM]
1 | TCR91 (TCR) TCR alpha: AQKVTQAQTEISVVEKEDVTLDCVYETRDTTYYLFWYKQPPSGELVFLIRRNSFDEQNEISGRYSWNFQKSTSSFNFTITASQVVDSAVYFCALNEGGGSTLGRLYFGRGTQLTVWPDIQNPDPAVYQLRDSKSSDKSVCLFTDFDSQTNVSQSKDSDVYITDKCVLDMRSMDFKSNSAVAWSNKSDFACANAFNNSIIPEDTFFPSPESSCDVKLVEKSFETDTNLNFQNLSVIGFRILLLKVAGFNLLMTLRLWSS TCR beta: MGPGLLHWMALCLLGTGHGDAMVIQNPRYQVTQFGKPVTLSCSQTLNHNVMYWYQQKSSQAPKLLFHYYDKDFNNEADTPDNFQSRRPNTSFCFLDIRSPGLGDAAMYLCATSTGRVYQPQHFGDGTRLSILEDLNKVFPPEVAVFEPSEAEISHTQKATLVCLATGFFPDHVELSWWVNGKEVHSGVCTDPQPLKEQPALNDSRYCLSSRLRVSATFWQNPRNHFRCQVQFYGLSENDEWTQDRAKPVTQIVSAEAWGRADCGFTSVSYQQGVLSATILYEILLGKATLYAVLVSALVLMAMVKRKDFGGSG | 14.4 | 36.5 | 131 | 14.4 | 179 | – | – | – | –
2 | TCR2 (TCR) TCR alpha: AQTVTQSQPEMSVQEAETVTLSCTYDTSENNYYLFWYKQPPSRQMILVIRQEAYKQQNATENRFSVNFQKAAKSFSLKISDSQLGDTAMYFCAFMYPSQGGSEKLVFGKGMKLTVNPNIQNPDPAVYQLRDSKSSDKSVCLFTDFDSQTNVSQSKDSDVYITDKCVLDMRSMDFKSNSAVAWSNKSDFACANAFNNSIIPEDTFFPSPESSCDVKLVEKSFETDTNLNFQNLSVIGFRILLLKVAGFNLLMTLRLWSS TCR beta: MGPGLLCWVLLCLLGAGSVETGVTQSPTHLIKTRGQQVTLRCSSQSGHNTVSWYQQALGQGPQFIFQYYREEENGRGNFPPRFSGLQFPNYSSELNVNALELDDSALYLCASSSPGFRSYGYTFGSGTRLTVVEDLKNVFPPEVAVFEPSEAEISHTQKATLVCLATGFYPDHVELSWWVNGKEVHSGVCTDPQPLKEQPALNDSRYCLSSRLRVSATFWQNPRNHFRCQVQFYGLSENDEWTQDRAKPVTQIVSAEAWGRADCGFTSESYQQGVLSATILYEILLGKATLYAVLVSALVLMAMVKRKDSRG | 42.7 | 10.1 | 31.6 | 7.3 | 22.2 | – | – | – | –
3 | TCR5 (TCR) TCR alpha: RGEDVEQSLFLSVREGDSSVINCTYTDSSSTYLYWYKQEPGAGLQLLTYIFSNMDMKQDQRLTVLLNKKDKHLSLRIADTQTGDSAIYFCAERDAGNNRKLIWGLGTSLAVNPNIQNPDPAVYQLRDSKSSDKSVCLFTDFDSQTNVSQSKDSDVYITDKCVLDMRSMDFKSNSAVAWSNKSDFACANAFNNSIIPEDTFFPSPESSCDVKLVEKSFETDTNLNFQNLSVIGFRILLLKVAGFNLLMTLRLWSS TCR beta: GAGVSQSPRYKVAKRGQDVALRCDPISGHVSLFWYQQALGQGPEFLTYFQNEAQLDKSGLPSDRFFAERPEGSVSTLKIQRTQQEDSAVYLCASSLEGGDTQYFGPGTRLTVLEDLKNVFPPEVAVFEPSEAEISHTQKATLVCLATGFYPDHVELSWWVNGKEVHSGVCTDPQPLKEQPALNDSRYCLSSRLRVSATFWQNPRNHFRCQVQFYGLSENDEWTQDRAKPVTQIVSAEAWGRADCGFTSESYQQGVLSATILYEILLGKATLYAVLVSALVLMAMVKRKDSRG | 23.9 | 7.6 | 36.3 | 9.4 | 37.8 | – | – | – | –
4 | TCR4 (TCR) TCR alpha: QKEVEQDPGPLSVPEGAIVSLNCTYSNSAFQYFMWYRQYSRKGPELLMYTYSSGNKEDGRFTAQVDKSSKYISLFIRDSQPSDSATYLCAMGALNSGAGSYQLTFGKGTKLSVIPNIQNPDPAVYQLRDSKSSDKSVCLFTDFDSQTNVSQSKDSDVYITDKCVLDMRSMDFKSNSAVAWSNKSDFACANAFNNSIIPEDTFFPSPESSCDVKLVEKSFETDTNLNFQNLSVIGFRILLLKVAGFNLLMTLRLWSS TCR beta: KAGVTQTPRYLIKTRGQQVTLSCSPISGHRSVSWYQQTPGQGLQFLFEYFSETQRNKGNFPGRFSGRQFSNSRSEMNVSTLELGDSALYLCASSLSSGTGTEAFFGQGTRLTVEDLKNVFPPEVAVFEPSEAEISHTQKATLVCLATGFYPDHVELSWWVNGKEVHSGVCTDPQPLKEQPALNDSRYCLSSRLRVSATFWQNPRNHFRCQVQFYGLSENDEWTQDRAKPVTQIVSAEAWGRADCGFTSESYQQGVLSATILYEILLGKATLYAVLVSALVLMAMVKRKDSRG | 16 | 11.8 | 49.8 | 4.4 | 31.1 | – | – | – | –
5 | TCR1 (TCR) TCR alpha: GDSVTQMEGPVTLSEEAFLTINCTYTATGYPSLFWYVQYPGEGLQLLLKATKADDKGSNKGFEATYRKETTSFHLEKGSVQVSDSAVYFCALSDRVGGARLMFGDGTQLVVKPNIQNPDPAVYQLRDSKSSDKSVCLFTDFDSQTNVSQSKDSDVYITDKCVLDMRSMDFKSNSAVAWSNKSDFACANAFNNSIIPEDTFFPSPESSCDVKLVEKSFETDTNLNFQNLSVIGFRILLLKVAGFNLLMTLRLWSS TCR beta: DIYQTPRYLVIGTGKKITLECSQTMGHDKMYWYQQDPGMELHLIHYSYGVNSTEKGDLSSESTVSRIRTEHFPLTLESARPSHTSQYLCASSEGLYNEQFFGPGTRLTVLEDLKNVFPPEVAVFEPSEAEISHTQKATLVCLATGFYPDHVELSWWVNGKEVHSGVCTDPQPLKEQPALNDSRYCLSSRLRVSATFWQNPRNHFRCQVQFYGLSENDEWTQDRAKPVTQIVSAEAWGRADCGFTSESYQQGVLSATILYEILLGKATLYAVLVSALVLMAMVKRKDSRG | – | 64.1 | 119 | 12.2 | 51.1 | – | – | – | –
6 | TCR6 (TCR) TCR alpha: GQQLNQSPQSMFIQEGEDVSMNCTSSSIFNTWLWYKQDPGEGPVLLIALYKAGELTSNGRLTAQFGITRKDSFLNISASIPSDVGIYFCAGRREGAQKLVFGQGTRLTINPNIQNPDPAVYQLRDSKSSDKSVCLFTDFDSQTNVSQSKDSDVYITDKCVLDMRSMDFKSNSAVAWSNKSDFACANAFNNSIIPEDTFFPSPESSCDVKLVEKSFETDTNLNFQNLSVIGFRILLLKVAGFNLLMTLRLWSS TCR beta: GAGVSQSPRYKVAKRGQDVALRCDPISGHVSLFWYQQALGQGPEFLTYFQNEAQLDKSGLPSDRFFAERPEGSVSTLKIQRTQQEDSAVYLCASSSTLMGVNIQYFGAGTRLSVLEDLKNVFPPEVAVFEPSEAEISHTQKATLVCLATGFYPDHVELSWWVNGKEVHSGVCTDPQPLKEQPALNDSRYCLSSRLRVSATFWQNPRNHFRCQVQFYGLSENDEWTQDRAKPVTQIVSAEAWGRADCGFTSESYQQGVLSATILYEILLGKATLYAVLVSALVLMAMVKRKDSRG | – | 14.3 | 24 | 6.4 | 12.2 | – | – | – | –
7 | TCR1 (TCR, V domains shown) Valpha: GDSVTQMEGPVTLSEEAFLTINCTYTATGYPSLFWYVQYPGEGLQLLLKATKADDKGSNKGFEATYRKETTSFHLEKGSVQVSDSAVYFCALSDRVGGARLMFGDGTQLVVKP Vbeta: EADIYQTPRYLVIGTGKKITLECSQTMGHDKMYWYQQDPGMELHLIHYSYGVNSTEKGDLSSESTVSRIRTEHFPLTLESARPSHTSQYLCASSEGLYNEQFFGPGTRLTVL | – | – | – | – | – | 119 | 51.1 | 12.2 | 64.1
8 | TCR6 (TCR, V domains shown) Valpha: GQQLNQSPQSMFIQEGEDVSMNCTSSSIFNTWLWYKQDPGEGPVLLIALYKAGELTSNGRLTAQFGITRKDSFLNISASIPSDVGIYFCAGRREGAQKLVFGQGTRLTINP Vbeta: GAGVSQSPRYKVAKRGQDVALRCDPISGHVSLFWYQQALGQGPEFLTYFQNEAQLDKSGLPSDRFFAERPEGSVSTLKIQRTQQEDSAVYLCASSSTLMGVNIQYFGAGTRLSVL | – | – | – | – | – | 24 | 12.2 | 6.4 | 14.3
